Ends that are not written are not given here.

Test [1] addresses T1, 6xHis-tagged AIFM1(103–613) (UniProt O95831 103-613). Briefly: ITC.
The target in test [2] is T1, 6xHis-tagged AIFM1(103–613). Briefly: ITC. The source holds these as a separate data set.

T1 sequence (O95831 103-613): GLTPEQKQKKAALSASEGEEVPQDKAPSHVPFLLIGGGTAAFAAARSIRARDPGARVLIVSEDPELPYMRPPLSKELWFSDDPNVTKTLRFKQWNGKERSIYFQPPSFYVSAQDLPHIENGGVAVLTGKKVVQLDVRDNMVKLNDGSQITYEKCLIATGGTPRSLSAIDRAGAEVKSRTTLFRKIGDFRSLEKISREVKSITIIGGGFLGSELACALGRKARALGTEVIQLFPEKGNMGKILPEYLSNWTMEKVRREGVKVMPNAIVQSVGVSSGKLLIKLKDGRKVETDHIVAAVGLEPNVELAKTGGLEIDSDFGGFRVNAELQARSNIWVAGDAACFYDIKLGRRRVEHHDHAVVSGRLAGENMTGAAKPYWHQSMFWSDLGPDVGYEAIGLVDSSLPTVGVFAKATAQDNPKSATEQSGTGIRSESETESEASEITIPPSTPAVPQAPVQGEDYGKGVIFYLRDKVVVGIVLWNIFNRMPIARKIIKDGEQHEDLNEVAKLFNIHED

B1: recombinant full-length MIA40/CHCHD4^C4S,C53S,C55S (natural protein)
chain: MSYSRQEGKDRIIFVTKEDHETPSSAELVADDPNDPYEEHGLILPNGNINWNSPSLGGMASGPCGEQFKSAFSCFHYSTEEIKGSDCVDQFRAMQECMQKYPDLYPQEDEDEEEEREKKPAEQAEETAPIEATATKEEEGSS
For the molecule B1, in test [1], the “stoichiometry N” value turned out to be 2 AIFM1 per MIA40/CHCHD4.

B2: CHCHD4/MIA40 peptide (unlabeled), GSEGKDRIIFVTKEDHETPSSAEL-NH2 (peptide)
peptide: GSEGKDRIIFVTKEDHETPSSAEL-NH2
B2: the Kd in test [2] came to 2940 nM.

The values are drawn from publication PMC9434101 (The EMBO Journal, 2022).
